According to article PMC12719032, “Structural and biophysical insights into RomR, MglB, and MglC interactions involved in regulating cell polarity in Myxococcus xanthus” (The Journal of Biological Chemistry, 2025):

B1: MglC (mutual gliding-motility protein C) (natural protein, M. xanthus, UniProt Q1D0B6 1-120, looked up)
chain: MSFRTHLESVVNQVEGALACSVMGFDGISVDTFQKDESAELDLNGAWVEYANLLTQLRNAAETLKTGTVSEVSVNSEKVLTVMRLVSPDYFLVLALHADGNFGKGRYVLRVTAPKVRAEL
notes: MglC of Myxococcus xanthus (DSM no. 16526, type strain), Uniprot ID Q1D0B6; Homodimer by ASEC and SEC-SAXS; source: E. coli Rosetta (DE3), purified (Ni-NTA, SEC)
B2: RomR^371-420 (C-terminal helix of RomR, residues 371-420) (domain or fragment, M. xanthus, UniProt Q1D3Z1 371-420, looked up)
chain: DGGEALLREALSKASREVIEKIAWEVVPQLAETIIREELERLIKDRETQH
notes: synthetic gene from Invitrogen, cloned in pET-Duet-A with a TEV site; no tag cleavage is described; Trimer by SEC-SAXS; also called RomR C-terminal helix; helical domain of RomR; source: E. coli Rosetta (DE3), purified (Ni-NTA, SEC); not shown: His tag, N-terminal, kept

Key:
[1] = molecular target: RomR^327-420 (C-terminal region of RomR, residues 327-420) (M. xanthus); assay: BLI; Octet RED 96; RomR^327-420/RomR^371-420 immobilised on AR2G sensors by EDC/NHS; MglC in solution; 20 mM HEPES pH 8.0, 150 mM NaCl, 10% glycerol; 1:1 binding model
[2] = molecular target: RomR^327-420 (C-terminal region of RomR, residues 327-420) (M. xanthus); assay: ITC; MicroCal Auto-iTC200; 50 μM RomR^327-420/RomR^371-420 in the cell titrated with 500 μM MglC; 30 injections; one-site model; triplicate
[3] = molecular target: the molecule itself; assay: SEC-SAXS; BM29, ESRF; Advance BioSEC 300 column; 20 mM Hepes pH 8.0, 150 mM NaCl, 10% glycerol; Mw from Porod volume, fits of models to the scattering data
[4] = molecular target: B2; assay: ITC; MicroCal Auto-iTC200; 50 μM RomR^327-420/RomR^371-420 in the cell titrated with 500 μM MglC; 30 injections; one-site model; triplicate; conditions: both partners purified
[5] = molecular target: B1; assay: BLI; Octet RED 96; RomR^327-420/RomR^371-420 immobilised on AR2G sensors by EDC/NHS; MglC in solution; 20 mM HEPES pH 8.0, 150 mM NaCl, 10% glycerol; 1:1 binding model; conditions: both partners purified
[6] = molecular target: T1, MglB-MglC complex (preformed) (M. xanthus, UniProt Q1DB03 1-159; Q1D0B6 1-120); assay: BLI; Octet RED 96; RomR^371-420 immobilised on AR2G sensors by EDC/NHS; MglB-MglC complex in solution; 20 mM HEPES pH 8.0, 150 mM NaCl, 10% glycerol; 2:1 (heterogeneous ligand) model and steady state analysis; conditions: both partners purified
T1 construct: MglB of Myxococcus xanthus, Uniprot ID Q1DB03; as m7; MglC of Myxococcus xanthus, Uniprot ID Q1D0B6; as m1; also called MglBC; source: purified proteins from E. coli Rosetta (DE3), MglB and MglC premixed in a 2:1 ratio; copies: 4 + 2
T1 sequence (looked up) 1: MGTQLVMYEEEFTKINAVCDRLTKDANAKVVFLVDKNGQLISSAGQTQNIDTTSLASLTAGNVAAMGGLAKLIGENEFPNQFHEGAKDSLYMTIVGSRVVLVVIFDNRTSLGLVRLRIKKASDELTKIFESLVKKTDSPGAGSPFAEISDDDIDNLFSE
T1 sequence (looked up) 2: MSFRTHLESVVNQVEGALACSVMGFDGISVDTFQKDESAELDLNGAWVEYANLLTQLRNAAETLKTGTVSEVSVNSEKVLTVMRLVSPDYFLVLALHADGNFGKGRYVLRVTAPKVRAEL

[7] = molecular target: B1; assay: ITC; MicroCal Auto-iTC200; 50 μM RomR^327-420/RomR^371-420 in the cell titrated with 500 μM MglC; 30 injections; one-site model; triplicate; conditions: both partners purified
[8] = molecular target: T1, MglB-MglC complex (preformed); assay: ITC; MglB and MglC premixed 2:1; 25 μM of the complex in the cell titrated with 300 μM RomR^371-420; one-site model; triplicate; conditions: both partners purified

Binder	Kd [1]	koff [1]	kon [1]	Kd [2]	stoichiometry N [2]	stoichiometry N [3]	dH [4]	stoichiometry N [4]	Kd [5]	koff [5]	kon [5]	Kd [6]	Kd [7]	Kd [8]	dH [8]
B1	5.5 nM	0.000805 s⁻¹	146000 M⁻¹ s⁻¹	4.2 nM	0.67	2	-2.59 kcal/mol	0.65							
B2						3			2.8 nM	0.000652 s⁻¹	228000 M⁻¹ s⁻¹	280 nM	2.6 nM	~150 nM	-6.07 kcal/mol
